Data published in US20260015426A1 (23ANDME, published 2026).

How the values were obtained:
[1] = biological target: T1, hu-M-IL1RAP construct, positions S21-T367 (extracellular domain of the membrane form of human IL1RAP) (human, UniProt Q9NPH3 21-367); assay: SPR, Fab analyte
T1 construct: Biotinylated when captured on the Biacore chip
T1 sequence: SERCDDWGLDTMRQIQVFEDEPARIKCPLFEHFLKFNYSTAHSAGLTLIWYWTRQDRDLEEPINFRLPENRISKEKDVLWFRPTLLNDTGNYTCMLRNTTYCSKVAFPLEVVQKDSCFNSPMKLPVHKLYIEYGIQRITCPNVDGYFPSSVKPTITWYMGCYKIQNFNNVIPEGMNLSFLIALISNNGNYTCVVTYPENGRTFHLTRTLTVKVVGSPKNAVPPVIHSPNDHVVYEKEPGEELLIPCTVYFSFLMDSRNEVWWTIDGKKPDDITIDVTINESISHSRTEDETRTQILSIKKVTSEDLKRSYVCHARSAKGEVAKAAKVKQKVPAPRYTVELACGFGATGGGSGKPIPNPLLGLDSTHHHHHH
Procedure: Surface plasmon resonance (SPR) analysis was used to determine binding affinity for hu-M-IL1RAP of the purified Fabs containing the selected single, double, and triple mutations in either the VL or VH regions using a BIACORE™ 8K instrument. […] For kinetics measurements, 5 nM biotinylated hu-M-IL1RAP was captured at 10 μL/min to achieve ˜50 response units in the second flow cell (FC2). FC1 was kept as a reference. […] The sensorgrams were recorded and subjected to reference and buffer subtraction before data analysis with the BIACORE® 8K Evaluation Software (version 1.1.1.7442). Association rates (kₒₙ) and dissociation rates (koff) were calculated using a simple one-to-one Langmuir binding model. The equilibrium dissociation constant (KD) was calculated as the ratio of koff/kₒₙ.

[2] = biological target: T1, hu-M-IL1RAP construct, positions …; assay: SPR, Fab analyte, 25 C
[3] = biological target: T1, hu-M-IL1RAP construct, positions …; assay: SPR, Fab analyte, 37 C
[4] = biological target: T2, human IL1RAP (hu-IL1RAP) on human cells (human, UniProt Q9NPH3 21-570); assay: cell-based or functional assay
T2 sequence: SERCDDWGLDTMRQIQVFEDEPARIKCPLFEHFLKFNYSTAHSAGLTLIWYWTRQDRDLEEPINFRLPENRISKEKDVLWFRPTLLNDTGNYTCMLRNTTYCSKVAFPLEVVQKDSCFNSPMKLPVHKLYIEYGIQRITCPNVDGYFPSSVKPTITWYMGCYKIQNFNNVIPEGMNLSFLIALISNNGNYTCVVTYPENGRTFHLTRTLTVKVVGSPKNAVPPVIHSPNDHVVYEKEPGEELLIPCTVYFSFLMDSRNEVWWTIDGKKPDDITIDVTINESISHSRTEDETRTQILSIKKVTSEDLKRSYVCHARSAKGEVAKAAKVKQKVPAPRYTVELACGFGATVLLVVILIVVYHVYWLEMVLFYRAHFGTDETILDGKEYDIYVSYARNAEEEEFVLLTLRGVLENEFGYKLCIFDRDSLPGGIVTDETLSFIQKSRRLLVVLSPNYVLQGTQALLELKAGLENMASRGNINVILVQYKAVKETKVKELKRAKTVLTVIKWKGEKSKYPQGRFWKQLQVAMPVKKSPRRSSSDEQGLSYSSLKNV

B1: K13 Fab (VL A51Y/W92I) (Fab, V domains shown)
VH: EVQLVESGGGLVQPGGSLRLSCAASGFTFSNYAMSWVRQAPGKGLEWVATVTEGGDYNYYLDDVKGRFTISRDNAKNSLYLQMNSLRAEDTAVYYCARDRWPYFFDYWGQGTLVTVSS
VL: DIQMTQSPSSLSASVGDRVTITCRASENIYSNLAWYQQKPGKSPKLLVYGYKNLADGVPSRFSGSGSGTDYTLTISSLQPEDFATYYCQHFITTPRTFGGGTKVEIK
notes: Fab with 8xHis tag
- fold improvement of affinity over the parental Fab [1]: 9 fold
- Kd [2]: 0.00709 nM
- koff [2]: 4.36e-05 s⁻¹
- kon [2]: 6.15e+06 M⁻¹ s⁻¹
- Kd [3]: 0.0293 nM
- koff [3]: 0.000117 s⁻¹
- kon [3]: 4.01e+06 M⁻¹ s⁻¹
- HEK-Blue, IL-1β, % inhibition at 100 nM (Fab) [4]: 100%
- HEK-Blue, IL-1β, IC50 (Fab) [4]: 0.94 nM
- HEK-Blue, IL-33, % inhibition at 100 nM (Fab) [4]: 98%
- HEK-Blue, IL-33, IC50 (Fab) [4]: 3.17 nM
- HEK-Blue, IL-36α, % inhibition at 100 nM (Fab) [4]: 100%
- HEK-Blue, IL-36α, IC50 (Fab) [4]: 0.884 nM
